Three molecules from publication PMC12264551 (Molecular Pharmacology, 2025) can be followed below.

Assay [1] addresses T1, calcitonin receptor (Homo sapiens, UniProt P30988).
T1 sequence (P30988 25-474): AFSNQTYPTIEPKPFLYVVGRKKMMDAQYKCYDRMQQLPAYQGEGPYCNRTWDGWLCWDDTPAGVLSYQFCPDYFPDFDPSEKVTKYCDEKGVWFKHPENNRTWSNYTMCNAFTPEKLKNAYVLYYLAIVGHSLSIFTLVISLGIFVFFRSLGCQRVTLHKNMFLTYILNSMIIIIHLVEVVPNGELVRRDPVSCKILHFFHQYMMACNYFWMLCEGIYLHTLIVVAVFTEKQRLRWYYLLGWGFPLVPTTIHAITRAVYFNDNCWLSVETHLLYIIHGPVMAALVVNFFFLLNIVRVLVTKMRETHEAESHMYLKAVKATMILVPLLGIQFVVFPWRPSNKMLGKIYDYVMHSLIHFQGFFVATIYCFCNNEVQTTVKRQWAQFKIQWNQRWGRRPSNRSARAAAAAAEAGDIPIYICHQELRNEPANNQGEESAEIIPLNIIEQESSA
The experiment in a line: Live cell cAMP accumulation (GloSensor), MCF-7 cells with endogenous calcitonin receptor. The class given is cell-based. Further details: COS-7 (African monkey kidney) in A3. Conditions: calcitonin + vehicle, Fig. 1D, fraction of greatest slope, ± SEM, n = 3.

In assay [2] the target is T1, calcitonin receptor. The experiment in a line: Live cell cAMP accumulation (GloSensor), COS-7 cells transfected with calcitonin receptor. The class given is cell-based. Further details: host or cells: COS-7 (African monkey kidney) in A3. Conditions: calcitonin + vehicle, Fig. 1F, fraction of greatest slope, ± SEM, n = 3. (In general: cAMP levels reflect the balance of adenylyl cyclase and phosphodiesterase activity.)

Assay [3] deals with T1, calcitonin receptor. Briefly: Live cell cAMP accumulation (GloSensor), UMR-106 cells transfected with calcitonin receptor. The class given is cell-based. Further details: host or cells: UMR-106 (rat osteoblast-like) in A1; COS-7 (African monkey kidney) in A3. Conditions: calcitonin + vehicle, Fig. 1B, fraction of greatest slope, best-fit ± SEM, n = 3.
The target in assay [4] is calcitonin receptor (UniProt P30988).
Assay [5] has as its target calcitonin receptor, endogenous in MCF-7 cells (human (endogenous in MCF-7)) (UniProt P30988).
For assay [6], the target named is T2, VPAC1R, endogenous in SaOS-2 cells (human (endogenous in SaOS-2)) (UniProt P32241).
T2 sequence: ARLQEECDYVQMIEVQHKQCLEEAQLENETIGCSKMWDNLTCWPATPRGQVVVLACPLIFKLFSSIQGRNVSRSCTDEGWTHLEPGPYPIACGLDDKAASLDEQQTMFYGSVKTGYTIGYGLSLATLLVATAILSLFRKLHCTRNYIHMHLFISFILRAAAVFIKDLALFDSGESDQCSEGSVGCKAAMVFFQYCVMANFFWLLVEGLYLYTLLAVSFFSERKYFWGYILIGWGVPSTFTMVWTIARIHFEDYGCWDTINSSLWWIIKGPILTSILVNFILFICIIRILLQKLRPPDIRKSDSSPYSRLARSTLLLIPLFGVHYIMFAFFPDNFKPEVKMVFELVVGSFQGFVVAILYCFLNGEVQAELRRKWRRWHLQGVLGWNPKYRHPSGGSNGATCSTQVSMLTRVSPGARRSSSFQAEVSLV

Assay [7] concerns the target T3, vasoactive intestinal polypeptide receptor 1 (UniProt P32241).
T3 sequence: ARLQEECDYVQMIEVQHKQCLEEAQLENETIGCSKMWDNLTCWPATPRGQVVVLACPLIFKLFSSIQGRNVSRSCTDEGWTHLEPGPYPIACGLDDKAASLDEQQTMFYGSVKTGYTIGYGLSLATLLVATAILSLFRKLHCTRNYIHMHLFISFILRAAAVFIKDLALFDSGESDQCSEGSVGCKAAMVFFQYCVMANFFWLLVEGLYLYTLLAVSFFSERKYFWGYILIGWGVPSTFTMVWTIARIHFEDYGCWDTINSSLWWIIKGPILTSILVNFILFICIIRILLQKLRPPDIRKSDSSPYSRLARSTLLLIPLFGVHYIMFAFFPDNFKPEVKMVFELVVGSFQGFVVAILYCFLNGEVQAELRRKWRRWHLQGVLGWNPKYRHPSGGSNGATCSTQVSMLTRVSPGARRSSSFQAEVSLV

In assay [8] the target is T4, vasoactive intestinal polypeptide receptor 2 (UniProt P41587).
T4 sequence: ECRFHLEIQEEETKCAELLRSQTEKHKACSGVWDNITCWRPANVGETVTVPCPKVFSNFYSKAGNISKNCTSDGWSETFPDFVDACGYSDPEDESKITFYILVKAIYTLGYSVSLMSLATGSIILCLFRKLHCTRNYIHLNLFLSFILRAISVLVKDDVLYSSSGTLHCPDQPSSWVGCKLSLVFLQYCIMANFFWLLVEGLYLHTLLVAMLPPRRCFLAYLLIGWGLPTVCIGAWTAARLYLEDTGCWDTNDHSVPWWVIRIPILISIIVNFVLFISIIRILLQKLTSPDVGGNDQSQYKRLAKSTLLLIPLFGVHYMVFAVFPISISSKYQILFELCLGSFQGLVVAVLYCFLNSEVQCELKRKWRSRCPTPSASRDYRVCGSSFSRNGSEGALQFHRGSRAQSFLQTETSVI

Consider `CC(C)C[C@H](NC(=O)[C@H](CCCCN)NC(=O)CNC(=O)[C@H](CC(C)C)NC(=O)[C@@H](NC(=O)[C@@H]1CSSC[C@H](N)C(=O)N[C@@H](CO)C(=O)N[C@@H](CC(N)=O)C(=O)N[C@@H](CC(C)C)C(=O)N[C@@H](CO)C(=O)N[C@@H]([C@@H](C)O)C(=O)N1)C(C)C)C(=O)N[C@@H](CO)C(=O)N[C@@H](CCC(N)=O)C(=O)N[C@@H](CCC(=O)O)C(=O)N[C@@H](CC(C)C)C(=O)N[C@@H](Cc1c[nH]cn1)C(=O)N[C@@H](CCCCN)C(=O)N[C@@H](CC(C)C)C(=O)N[C@@H](CCC(N)=O)C(=O)N[C@H](C(=O)N[C@@H](Cc1ccc(O)cc1)C(=O)N1CCC[C@H]1C(=O)N[C@@H](CCCNC(=N)N)C(=O)N[C@H](C(=O)N[C@@H](CC(N)=O)C(=O)N[C@H](C(=O)NCC(=O)N[C@@H](CO)C(=O)NCC(=O)N[C@H](C(=O)N1CCC[C@H]1C(N)=O)[C@@H](C)O)[C@@H](C)O)[C@@H](C)O)[C@@H](C)O` [calcitonin, Salmon calcitonin], for which the “Normalized Maximum” value at calcitonin receptor [1] amounted to 0.68 ± 0.05; on calcitonin receptor [2], 0.69 ± 0.04; at calcitonin receptor [3], 0.69 ± 0.04.

With Salmon calcitonin (peptide), in the assay with calcitonin receptor [4], the −LogEC50 of calcitonin, maximum rate of cAMP accumulation (GloSensor), COS-7 cells transfected with calcitonin receptor, vehicle (Fig. 1F) (−LogEC50 (EC50 in M)) was 9.64; the −LogEC50 of calcitonin, maximum rate of cAMP accumulation (GloSensor), COS-7 cells transfected with calcitonin receptor, with ATP 1.5 mM (Fig. 1F) (−LogEC50 (EC50 in M)) stood at 10.5; the −LogEC50 of calcitonin, maximum rate of cAMP accumulation (GloSensor), UMR-106 cells transfected with calcitonin receptor, vehicle (Fig. 1B) (−LogEC50 (EC50 in M)) was 9.15; the −LogEC50 of calcitonin, maximum rate of cAMP accumulation (GloSensor), UMR-106 cells transfected with calcitonin receptor, with ATP 1.5 mM (Fig. 1B) (−LogEC50 (EC50 in M)) turned out to be 10.3. In addition, in assay [5], the −LogEC50 of calcitonin, maximum rate of cAMP accumulation (GloSensor), MCF-7 cells (endogenous calcitonin receptor), vehicle (Fig. 1D) (−LogEC50 (EC50 in M)) stood at 8.19 and the −LogEC50 of calcitonin, maximum rate of cAMP accumulation (GloSensor), MCF-7 cells (endogenous calcitonin receptor), with ATP 1.5 mM (Fig. 1D) (−LogEC50 (EC50 in M)) turned out to be 9.86.

B1: vasoactive intestinal peptide (peptide)
peptide: HSDAVFTDNYTRLRKQMAVKKYLNSILN
On to B1, for which, in assay [6], the −LogEC50 of VIP, maximum rate of cAMP accumulation (GloSensor), SaOS-2 cells (endogenous VPAC1R), vehicle (Fig. 6K) (−LogEC50 (EC50 in M)) turned out to be 8.35 and the −LogEC50 of VIP, maximum rate of cAMP accumulation (GloSensor), SaOS-2 cells (endogenous VPAC1R), with ATP 1.5 mM (Fig. 6K) (−LogEC50 (EC50 in M)) was determined as 9.24. In assay [7], this molecule displayed a −LogEC50 of VIP, maximum rate of cAMP accumulation (GloSensor), COS-7 cells transfected with VPAC1R, vehicle (Fig. 6E) (−LogEC50 (EC50 in M)) of 9.56 and a −LogEC50 of VIP, maximum rate of cAMP accumulation (GloSensor), COS-7 cells transfected with VPAC1R, with ATP 1.5 mM (Fig. 6E) (−LogEC50 (EC50 in M)) of 10.3. In assay [8], this molecule showed a −LogEC50 of VIP, maximum rate of cAMP accumulation (GloSensor), COS-7 cells transfected with VPAC2R, vehicle (Fig. 6H) (−LogEC50 (EC50 in M)) of 8.9 and a −LogEC50 of VIP, maximum rate of cAMP accumulation (GloSensor), COS-7 cells transfected with VPAC2R, with ATP 1.5 mM (Fig. 6H) (−LogEC50 (EC50 in M)) of 9.42.
